Laboratory results taken from patent US20250129170A1 (IMMUNEDGE, published 2025).

T1: human CD131 on 293T/CD131 cells (human, UniProt P32927 17-897)
T1 construct: whole, on cells; also called hCD131
T1 sequence (looked up): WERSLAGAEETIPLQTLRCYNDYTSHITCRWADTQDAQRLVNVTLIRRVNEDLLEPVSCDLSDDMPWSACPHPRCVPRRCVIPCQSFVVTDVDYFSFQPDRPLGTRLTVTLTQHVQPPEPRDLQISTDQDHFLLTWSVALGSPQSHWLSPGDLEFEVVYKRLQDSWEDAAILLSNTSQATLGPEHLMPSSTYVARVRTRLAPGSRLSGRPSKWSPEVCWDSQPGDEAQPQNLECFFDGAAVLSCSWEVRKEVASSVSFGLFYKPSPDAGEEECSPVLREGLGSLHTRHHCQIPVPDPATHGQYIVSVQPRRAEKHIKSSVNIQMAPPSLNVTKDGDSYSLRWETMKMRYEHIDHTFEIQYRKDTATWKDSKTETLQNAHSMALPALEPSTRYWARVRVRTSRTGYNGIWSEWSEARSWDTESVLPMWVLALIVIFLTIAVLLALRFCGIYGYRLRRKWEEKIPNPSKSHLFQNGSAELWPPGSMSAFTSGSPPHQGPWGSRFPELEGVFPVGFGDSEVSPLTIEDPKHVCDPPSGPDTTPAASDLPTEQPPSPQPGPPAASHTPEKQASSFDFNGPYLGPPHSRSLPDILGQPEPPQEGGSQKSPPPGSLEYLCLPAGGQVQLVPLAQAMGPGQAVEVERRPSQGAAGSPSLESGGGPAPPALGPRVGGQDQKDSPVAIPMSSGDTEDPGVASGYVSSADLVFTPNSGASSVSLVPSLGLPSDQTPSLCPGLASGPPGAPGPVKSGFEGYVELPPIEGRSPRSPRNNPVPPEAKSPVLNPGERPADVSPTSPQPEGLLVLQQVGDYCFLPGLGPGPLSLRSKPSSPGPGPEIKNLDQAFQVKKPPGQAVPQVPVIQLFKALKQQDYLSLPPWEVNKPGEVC

T2: soluble hetero-EPOR (EPOR-CD131-Fc) (human, UniProt P19235 25-250; P32927 17-443)
T2 construct: extracellular domain; also called soluble EPOR-CD131-Fc; not shown: human Fc (captured by anti-human Fc)
T2 sequence (looked up) 1: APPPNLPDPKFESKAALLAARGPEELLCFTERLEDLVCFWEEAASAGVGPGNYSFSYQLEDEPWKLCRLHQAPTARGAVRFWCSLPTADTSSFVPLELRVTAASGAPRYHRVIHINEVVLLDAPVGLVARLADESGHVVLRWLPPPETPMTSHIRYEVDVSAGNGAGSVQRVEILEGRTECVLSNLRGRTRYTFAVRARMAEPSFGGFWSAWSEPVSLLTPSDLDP
T2 sequence (looked up) 2: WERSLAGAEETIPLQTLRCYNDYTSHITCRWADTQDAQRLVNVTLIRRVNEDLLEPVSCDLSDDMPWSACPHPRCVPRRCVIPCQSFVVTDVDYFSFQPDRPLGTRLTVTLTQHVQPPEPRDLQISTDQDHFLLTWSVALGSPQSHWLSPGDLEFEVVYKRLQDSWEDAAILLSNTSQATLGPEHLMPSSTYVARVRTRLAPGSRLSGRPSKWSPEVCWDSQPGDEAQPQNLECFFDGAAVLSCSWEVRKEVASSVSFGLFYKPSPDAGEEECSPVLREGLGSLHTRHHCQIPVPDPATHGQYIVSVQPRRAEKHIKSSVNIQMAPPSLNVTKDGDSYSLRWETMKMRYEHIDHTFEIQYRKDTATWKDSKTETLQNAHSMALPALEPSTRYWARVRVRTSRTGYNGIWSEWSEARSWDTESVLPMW

T3: hCD131-Fc (IME021, inhouse) (human, UniProt P32927 17-443, limits assumed)
T3 construct: also called soluble CD131 subunit of hetero-EPOR; not shown: Fc
T3 sequence (looked up): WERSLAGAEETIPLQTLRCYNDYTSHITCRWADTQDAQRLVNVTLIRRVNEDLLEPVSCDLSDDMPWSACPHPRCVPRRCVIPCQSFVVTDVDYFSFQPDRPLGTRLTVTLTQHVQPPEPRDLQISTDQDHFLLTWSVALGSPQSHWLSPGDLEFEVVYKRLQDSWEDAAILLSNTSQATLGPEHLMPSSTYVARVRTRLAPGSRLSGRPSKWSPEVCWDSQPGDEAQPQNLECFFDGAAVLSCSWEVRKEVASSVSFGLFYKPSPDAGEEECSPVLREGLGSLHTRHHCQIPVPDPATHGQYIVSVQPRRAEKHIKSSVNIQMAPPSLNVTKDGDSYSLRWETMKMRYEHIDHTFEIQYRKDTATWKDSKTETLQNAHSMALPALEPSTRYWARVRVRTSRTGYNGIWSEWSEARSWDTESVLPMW


The binders below were run against T1, human CD131 on 293T/CD131 cells (assay: flow cytometry on 293T/CD131 cells, purified antibody, PE labeled secondary antibody).

| binding result | Binder |
| --- | --- |
| no binding | hybridoma clone M2 (antibody, V domains shown, Hybridoma from ATX-GK mice; tested as supernatant (BLI) and purified (cell staining, Stat5 assay); also called EPORab - M2) VH: QVQLVESGGGLVKPGGSLRLSCAASGFTFSDSYMSWIRQAPGKGLEWVSYISNSGSYMYYADSVKGRFTISRDNAKNSLYLQMNNLRAEDTAVYYCARDKLGIGDYWGQGTLVTVSS VL: DIQMTQSPSSLSASVGDRVTITCRASQGIRNDLGWFQQKPGKAPKRLIYAASRLQSGVPSRFSGSGSGTEFTLTISSLQPEDFATYCCLQHHTYPPTFGQGTKVEIK |
| no binding | hybridoma clone M41 (antibody, V domains shown, Hybridoma from ATX-GK mice; tested as supernatant (BLI) and purified (cell staining, Stat5 assay); also called EPORab - M41) VH: QVQLVESGGGLVQPGRSLRLSCAASGFTFDDYAIHWVRQAPGKGLEWVSGISYNSENIGYADSVKGRFTISRDNAKNSLYLQMNSLRSEDTALYYCAKDMFLTWFSSFDYWGQGTLVTVSS VL: ETKLTQSPGTLSLSPGERTTLSCRASQSISNNYLAWYQQKPGQAPRLLIYRASTRATGIPDRFSGSGSGTDFTLTIRRLEPEDFAVYYCQRYGRSPLTFGGGTKVEIK |

What follows are binders tested against T2, soluble hetero-EPOR (EPOR-CD131-Fc) (assay: Octet BLI, EPOR-CD131-Fc on anti-human Fc sensor, 10 nM EPO +/- hybridoma supernatant; competitor EPO).

| Binder | % Inhibition |
| --- | --- |
| EPORab - M1 (antibody, V domains shown, hybridoma supernatant, ATX-GK mouse; also called hybridoma clone M1) VH: QVQLQESGPGLVKPSQTLSLTCTVSGGSISSGGYYWSWIRQHPGKGLEWIGNIYYSGNPYYNPSLKSRLIISVDTSKNQFSLRLNSVTAADTAVYYCATFYYGSGSYYNEDYWGQGTLVTVSS VL: DIQMTQSPSSLSASVGDRVTITCRASQGIRIDLGWYQQKPGKAPKRLIYAASSLKSGVPSRFSGSGSGTEFTLTISSLQPEDFTTYFCLQHNSYPYTFGQGTKLEIK | 31.2% |
| EPORab - M2 (antibody, V domains shown, hybridoma supernatant, ATX-GK mouse; also called hybridoma clone M2) VH: QVQLVESGGGLVKPGGSLRLSCAASGFTFSDSYMSWIRQAPGKGLEWVSYISNSGSYMYYADSVKGRFTISRDNAKNSLYLQMNNLRAEDTAVYYCARDKLGIGDYWGQGTLVTVSS VL: DIQMTQSPSSLSASVGDRVTITCRASQGIRNDLGWFQQKPGKAPKRLIYAASRLQSGVPSRFSGSGSGTEFTLTISSLQPEDFATYCCLQHHTYPPTFGQGTKVEIK | 93.6% |
| EPORab - M24 (antibody, V domains shown, hybridoma supernatant, ATX-GK mouse; also called hybridoma clone M24) VH: EVQLVESGGGLVKPGGSLRLSCAASGFTFTNAWMNWVRQAPGKGLEWIGRIKSKTAGETTDYAAPVKGRFTISRDDSKNTLYLQMNSLKTEDTAVYYCTTDPDYGDPYYYYYFMDVWGKGTTVTVSS VL: DIQMTQSPSSLSASIGDRVTISCRASQSISSYLNWYQQKPGKAPKLLIYGASSLQSGVPSRFSGSGSGTDFTLTISSLQPEDFATYYCQQSYSLPLTFGGGTKVEIK | 9.5% |
| EPORab - M26 (antibody, V domains shown, hybridoma supernatant, ATX-GK mouse; also called hybridoma clone M26) VH: QVQLVQSGVEVKKPGASVKVSCKASGYAFSNNDISWVRQAPGQGLEWMAWITTSNGNTNYAPKLQGRVTMTTDTSTSTAYMELRSLKSDDTAVYYCARGGRTGYFDYWGQGTLVTVSS VL: not shown | 31.3% |
| EPORab - M9 (antibody, V domains shown, hybridoma supernatant, ATX-GK mouse; also called hybridoma clone M9) VH: QVQLQESGPGLVKPSQTLSLTCDISGDSVSSNSAAWNWIRQSPSRGLEWLGRTYYRSKWYNDYAVAVKSRITINPDTSKNQFSLQLNSVTPEDTAVYYCARESSGWYEDYYYYYMDVWGKGTTVTVSS VL: not shown | 18.1% |
| EPORab - M37 (antibody, V domains shown, hybridoma supernatant, ATX-GK mouse; also called hybridoma clone M37) VH: QVQLQESGPGLVKPSGTLSLTCAVSGGSITTNNWWSWVRQSPGKGLEWIGEIYHSGNTNYNPSLKSRVTMSVDKSKNQFSLNLNSVIVADTAVYYCASALGTYYGAFDTWGQGTMVTVSA VL: DIQMTQSPSSLSASVGDRVTITCRASQSISNYLNWYQQKPGKAPKLLIYAASSLQSGVPSRFSGSGSGTDFTLTISSLQPEDFTTYYCQQSYGTPYTFGQGAKLQIK | -7.1% |
| EPORab - M41 (antibody, V domains shown, hybridoma supernatant, ATX-GK mouse; also called hybridoma clone M41) VH: QVQLVESGGGLVQPGRSLRLSCAASGFTFDDYAIHWVRQAPGKGLEWVSGISYNSENIGYADSVKGRFTISRDNAKNSLYLQMNSLRSEDTALYYCAKDMFLTWFSSFDYWGQGTLVTVSS VL: ETKLTQSPGTLSLSPGERTTLSCRASQSISNNYLAWYQQKPGQAPRLLIYRASTRATGIPDRFSGSGSGTDFTLTIRRLEPEDFAVYYCQRYGRSPLTFGGGTKVEIK | 18.7% |
| EPORab - M38 (antibody, V domains shown, hybridoma supernatant, ATX-GK mouse; also called hybridoma clone M38) VH: QVQLVESGGGVVQPGRSLRLSCAASGFTFSSYGMHWVRQAPGKGLEWVAFIWYDGRNKNYVDSVKGRFTISRDNSKNTLYLQMNSLRAEDTAVYYCARDRGDYVFDYWGQGTLVTVSS VL: not shown | 0.5% |
| EPORab - M19 (antibody, V domains shown, hybridoma supernatant, ATX-GK mouse; also called hybridoma clone M19) VH: QLQLQESGPGLVKPSETLSLTCTVSGGSISSSNHYWGWIRQPPGKGLEWIGTLYYSGSTYYEPSLKSRVTISVDTSMNQFSLNLSSVTATDTAVYNCARGDRYGPFDYWGQGTLVTVSS VL: DIVMTQSPSSLSASVGDRVTITCRASQGIRDDLGWYQQKPEKAPKRLICAASSLQSGVPSRFSGSGSGTEFTLTISSLQPEDFATYYCLQYNRYPWTFGQGTKVEIK | 10.4% |

Continued, values first:

| % Inhibition | Binder |
| --- | --- |
| 7.4% | EPORab - M52 (antibody, V domains shown, hybridoma supernatant, ATX-GK mouse; also called hybridoma clone M52) VH: QLQLQESGPGLAKPSETLSLTCTVSGVSISSNSYYWGWIRQPPGKGLEWIGNIYHSGRTYYNPSLRSRVTISVDTSKNQFSLKLNSVTAADTAVYYCARGYSYGAFDYWGQGTLVTVSS VL: DIQMTQSPSSLSASVGDRVTITCRASQGIRNDLGWYQQKPGKAPKRLIYAASSLQSGIPSRFSGSGSGTEFTLTISSLQPEDFATYYCLQHNNYPWTFGQGTKVEIK |
| 16% | EPORab - M54 (antibody, V domains shown, hybridoma supernatant, ATX-GK mouse; also called hybridoma clone M54) VH: QLQLQESGPGLVKPSETLSLTCSVSGGSISSSGYYWGWIRQPPGKGLDWIGTIYYSGNTNYNPSLNSRVTISVDTSRNQFSLKLRSVTAADTAVYYCARGYSYGPFDYWGQGTLVTVSS VL: EIVMTQSPATLSVSPGERATLSCRASQSVSSNLAWYQLKPGQAPRLLIYGASTRATGIPARFSGSGSGTEFTLTISSLQSEDFAVYYCHPYNNWPLTFGGGTKVEIK |
| 0.1% | EPORab - M71 (antibody, V domains shown, hybridoma supernatant, ATX-GK mouse; also called hybridoma clone M71) VH: QVQLVESGAEVKKPRASVKVSCKTSGYTFTRHYMHWVRQAPGQGLEWMGIINPNNNSTSYAQKFQGRITMTRDTSTSTVYMELSSLRSEDTAVYYCARFRIVGTTLYFDYWGQGTLVTVSS VL: EIVMTQSPATLSVSPGERATLSCRASQSVSSNLAWYQLKPGQAPRLLIYGASTRATGIPARFSGSGSGTEFTLTISSLQSEDFAVYYCHPYNNWPLTFGGGTKVEIK |
| -11.4% | EPORab - M43 (antibody, V domains shown, hybridoma supernatant, ATX-GK mouse; also called hybridoma clone M43) VH: QVQLQESGPGLVKPSGTLSLTCAVSGGSISSSNWWSWVRQPPGKGLEWIGEIYHSGSINYNPSLKSRVTISVDKSKNQFSLKLTSVTAADTAVYYCASALGNYYGAFDLWGQGTMVTVSS VL: DIVMTQSPSSLSASVGDRVTITCRASQTISSYLNWYQQKPGKAPKLLICAASSLQGGVPSRFSGSGSGTDFTLTISSLQPEDFAPYYCQQSYSTPYTFGQGTKLEIK |
| -1.8% | EPORab - M80 (antibody, V domains shown, hybridoma supernatant, ATX-GK mouse; printed VH equals that of M2; also called hybridoma clone M80) VH: QVQLVESGGGLVKPGGSLRLSCAASGFTFSDSYMSWIRQAPGKGLEWVSYISNSGSYMYYADSVKGRFTISRDNAKNSLYLQMNNLRAEDTAVYYCARDKLGIGDYWGQGTLVTVSS VL: not shown |
| 11.5% | EPORab - M87 (antibody, V domains shown, hybridoma supernatant, ATX-GK mouse; also called hybridoma clone M87) VH: QVQLVQSGAEVKKPGASMKVSCKASGYTFTQNHISWVRQAPGQGLEWMGWISAYSGNTNYAWKFQGRVTMTTDTSTNTAYMELRSLRSDDTAVYYCARDRGNWNDFAYWGRGTLVTVSS VL: not shown |

Each binder was assayed against T3, hCD131-Fc (IME021, inhouse) (assay: Octet BLI, antibody from supernatant captured on anti-mouse Fc biosensors, 30 nM soluble receptor Fc fusion).

| binding result | Binder |
| --- | --- |
| binds | hybridoma clone M26 (antibody, V domains shown, Hybridoma from ATX-GK mice; also called EPORab - M26) VH: QVQLVQSGVEVKKPGASVKVSCKASGYAFSNNDISWVRQAPGQGLEWMAWITTSNGNTNYAPKLQGRVTMTTDTSTSTAYMELRSLKSDDTAVYYCARGGRTGYFDYWGQGTLVTVSS VL: not shown |
